Data as given in the supplement of paper PMC9170038.

Columns and labels:
[1] = system: K4 kissing-loop RNA reporter; test: apparent KD of K4 kissing-loop reporter; higher = weaker reporter binding; details: Eterna round: R107;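 also: bound reporter read as fluorescence of individual clusters on recovered sequencing chips by microscopy, with normalized cluster intensities fitted with a binding model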
Method: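 RNA-MaP round R107: designed RNA switches with theophylline, tryptophan, arginine or FMN aptamers are transcribed on-chip within common flanks. They are titrated with a labelled K4 kissing-loop RNA reporter in RNA-MaP buffer (100 mM Tris pH 7.5, 80 mM KCl, 4 mM MgCl2), without ligand or with the indicated ligand. Median apparent KD per design.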

[2] = system: MS2 coat protein; test: apparent KD of MS2 coat protein; designed switch direction (-1 OFF switch, 1 ON switch): -1; higher = weaker reporter binding
Outline: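 The apparent KD reported per design is the median over clusters of curve fits to normalised cluster fluorescence. The RNA switches were transcribed on Illumina chips by stalled E. coli RNA polymerase. SNAP-549-labelled MS2 coat protein was titrated from 0.7 or 1.5 nM, doubling up to 3 µM, in Tris-HCl pH 7.5 buffer containing KCl, MgCl2, BSA, DTT, tRNA and Tween-20, with no input, 200 uM small-molecule ligand, or an oligonucleotide input.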

[3] = input ligand: theophylline 20 uM
[4] = input ligand: tryptophan 2.4 mM
[5] = input ligand: microRNA oligo, concentration not stated
[6] = Eterna round: R95, input ligand: FMN 200 uM
[7] = Eterna round: R95, input ligand: microRNA oligo, concentration not stated
[8] = Eterna round: R95, input ligand: none

| Sequence | apparent KD of K4 kissing-loop reporter ([1]; input ligand: FMN 200 uM) | apparent KD of K4 kissing-loop reporter ([1]; input ligand: arginine 13.2 mM) | apparent KD of K4 kissing-loop reporter ([1]; input ligand: none) | apparent KD of K4 kissing-loop reporter [1, 3] | apparent KD of K4 kissing-loop reporter [1, 4] | apparent KD of MS2 coat protein [2, 7] | other results |
| --- | --- | --- | --- | --- | --- | --- | --- |
| AAAUUUAUAUUAGAUACCAGUUUAAUGGAUGUAAAUUAUGACAUGAGUGAUGUUCAUGUAAGCCCUUGGCAGCUGGUAUGGGUUU [KL-XTheo-B21] | 127 nM | 110 nM | 121 nM | 116 nM | 115 nM | – | – |
| AAAUUUAUAUUAGAUACCAGUUUAUUGGAUGUAAAUUAUGACAUGAGUGAUGUUCAUGUAAGCCCUUGGCAGCUGGUAUGGGUUU [KL-XTheo-B22] | 132 nM | 119 nM | 127 nM | 124 nM | 114 nM | – | – |
| AACCUACGAUCACAAUAGUGAUUGUAGGACUAGGAUAUGCUGAAAAGCAGAAGGAGUGAUGUUCCGUCAUGAAUAACAUGACAAA [FmnAX 3 #OpenEnded #K4Late #CoaxialStacking] | 610 nM | 465 nM | 455 nM | 497 nM | 357 nM | – | – |
| AACGUUUUGAGAAGGAGCGCGUUAAGCAGUGAUGUUGCUUUAUUAUAUUUACUACAUAUUUCGCAGGUAGGUCGCUCAAUACGUA [JR_Nu_SSArginiB_Sub025] | 154 nM | 153 nM | 148 nM | 152 nM | 123 nM | – | – |
| AACUGUCAAGGACAACAUUACUGAGGUGAUACCAGGUUUGAGAGGAUCCCUUGGCAGCACCAACUUGCAGUGAUGUUGCAAGUAA [BrourdMod 15 - Jieux - Exclusion - Theophylline A] | 243 nM | 211 nM | 240 nM | 254 nM | 243 nM | – | – |
| AAGAAGAAUGGAAGGAGCGAGCAGAAAUAACCAGUGAUGUUGGAAAGCCUUAUUGCUUAAGCUCAGGUAGGUCGCCAAGAAAAGA [Mostly trial and error] | 158 nM | 181 nM | 205 nM | 226 nM | 171 nM | – | – |
| AAGACCUGCAUCGAUACCAGCCCAGUGAUGUUGGGCUGCUCUCCAUGGGUGCCAGACACGGGCCCUUGGCAGCGAGGUAGGGCCC [Zazadilabi] | 136 nM | 106 nM | 117 nM | 93.1 nM | 103 nM | – | – |
| AAGAGAGCGAGAAGGAGCGAGAAAGCUAGUGCAUAUGCACUAGCAAAGCAGUGAUGUUGCACUCAGGUAGGUCGCUCGCUCUCAA [AK1.2 SS Arginine B] | 384 nM | 292 nM | 350 nM | 395 nM | 291 nM | – | – |
| AAGCAGUCACCCGAAGCCAUCGAAGAUGGACGAGGACCGGUACGGCCGCCACUCGGAGUGAUGUUCCGAAGACUGCAAAAUAAAA | 269 nM | 272 nM | 302 nM | 304 nM | 412 nM | – | – |
| UUUUUAUAUGAAGGAUAUACUUAACAUGAGGAUCACCCAUGUGGUGUUGUGAGUGAGUGAGUUUAGUAGAAGGUCAAGAAUUUU [JMF's solution 34] (Eterna round: R96, puzzle: Exclusion NG 2) | – | – | – | – | – | – | apparent KD of MS2 coat protein ([2]; input ligand: FMN 200 uM): 521 nM; apparent KD of MS2 coat protein [2, 5]: 399 nM; apparent KD of MS2 coat protein ([2]; input ligand: none): 324 nM |
| UUUUUAUAUGAAGGAUAUACUUAACAUGAGGAUCACCCAUGUGGUGUUGUGAGUGAGUGAGUUUAGUAGAAGGUCAAUGAUUUC [JMF's solution 64] (Eterna round: R96, puzzle: Exclusion NG 2) | – | – | – | – | – | – | apparent KD of MS2 coat protein ([2]; input ligand: FMN 200 uM): 764 nM; apparent KD of MS2 coat protein [2, 5]: 382 nM; apparent KD of MS2 coat protein ([2]; input ligand: none): 439 nM |
| UUUUUAUAUGAAGGAUAUACUUAACAUGAGGAUCACCCAUGUGGUGUUGUGAGUGAGUGAGUUUAGUAGAAGGUCAAUUAUCUU [JMF's solution 14] (Eterna round: R96, puzzle: Exclusion NG 2) | – | – | – | – | – | – | apparent KD of MS2 coat protein ([2]; input ligand: FMN 200 uM): 699 nM; apparent KD of MS2 coat protein [2, 5]: 309 nM; apparent KD of MS2 coat protein ([2]; input ligand: none): 373 nM |
| UUUUUAUAUGAAGGAUAUACUUAACAUGAGGAUCACCCAUGUGGUGUUGUGAGUGAGUGAGUUUAGUAGAAGGUCAGUUCUUUU [JMF's solution 79] (Eterna round: R96, puzzle: Exclusion NG 2) | – | – | – | – | – | – | apparent KD of MS2 coat protein ([2]; input ligand: FMN 200 uM): 414 nM; apparent KD of MS2 coat protein [2, 5]: 497 nM; apparent KD of MS2 coat protein ([2]; input ligand: none): 611 nM |
| UUUUUCGAACAAGCUUCGUACAUGAGGAUCACCCAUGUCGGUAGAUUUGAGUAGGUUUGGAUGGAAGUUCGUCUUAU [JR_SV3TOV1_Sub086] (puzzle: Sensor v3, turn-off variant 1) | – | – | – | – | – | 65.9 nM | apparent KD of MS2 coat protein [2, 6]: 28.2 nM; apparent KD of MS2 coat protein [2, 8]: 32.9 nM |
| UUUUUCGAACAAGCUUCGUACAUGAGGAUCACCCAUGUUGGUAGAUUUGAGUAGGUUUGGAUGUAAGCUCGUCUUAU [JR_SV3TOV1_Sub082] (puzzle: Sensor v3, turn-off variant 1) | – | – | – | – | – | 313 nM | apparent KD of MS2 coat protein [2, 6]: 98.7 nM; apparent KD of MS2 coat protein [2, 8]: 129 nM |
| UUUUUGUGAGGAUAUACGUAGUAGAACAAUAGUACUACUACGUAGAAGGCACAUGAGGAUCACCCAUGUUCCUC [Fiskers Ex 4 Super stable 44 mod 14] (puzzle: Exclusion 4) | – | – | – | – | – | 45.2 nM | – |
| UUUUUGUGAGGAUAUGGAAUAUCUUCUAUUUAUUAUUAAUUCCAGAAGGCACAUGAGGAUCACCCAUGUAUUUU [Ex4 - 3 - 35] (puzzle: Exclusion 4) | – | – | – | – | – | 20.7 nM | – |
| UUUUUGUUUUUGUUUUUUGACAUGAGGAUCACCCAUGUCACGAGCAGAUCUUCAUGCAAGCUUUUUGCUCGUCUUAU [Sensor v3 - Turn-off variant 1 - 39] (puzzle: Sensor v3, turn-off variant 1) | – | – | – | – | – | 46.9 nM | apparent KD of MS2 coat protein [2, 6]: 62.8 nM; apparent KD of MS2 coat protein [2, 8]: 83.3 nM |
| UUUUUUGUUGUGAGGAUAUCGUAUUUUUUUUGUUACGAGAAGGCACAUGAGGAUCACCCAUGUUUCUUGAUGUU [JR_BMOE4_Sub066] (puzzle: Brourd's mod of Exclusion 4) | – | – | – | – | – | 16.8 nM | – |
| UUUUUUGUUGUGAGGAUAUCGUUUUUGUUUUGGAUCGAGAAGGCACAUGAGGAUCACCCAUGUUUGUUGUGGUU [JR_BMOE4_Sub087] (puzzle: Brourd's mod of Exclusion 4) | – | – | – | – | – | 78.3 nM | – |
| UUUUUUUUGCGAGGAUAUGCUUUUAGUAAGUUAGCAGAAGGCGCGUUACAUAGAACCUCUUCUUACAUGAGGAUCACCCAUGUU [JR_ExcNG1_Sub035] (Eterna round: R96, puzzle: Exclusion NG 1) | – | – | – | – | – | – | apparent KD of MS2 coat protein ([2]; input ligand: FMN 200 uM): 95.6 nM; apparent KD of MS2 coat protein [2, 5]: 56 nM; apparent KD of MS2 coat protein ([2]; input ligand: none): 61.9 nM |
